The results in this text go back to PMC12667214, “Phosphomimetic mutations near active sites of proteins in Thermus thermophilus suggest a widespread regulatory mechanism” (FEBS Open Bio, 2025).

Substrate in data set [1]: Nc1ncnc2c1ncn2[C@@H]1O[C@H](COP(=O)(O)OP(=O)(O)OP(=O)(O)O)[C@@H](O)[C@H]1O
The data set can be described thus: pyruvate kinase/lactate dehydrogenase coupled assay, A340. The conditions noted are these: 1 mM CMP, 25 °C, pH 7.5, 5 mM MgCl2. Format: biochemical, Thermus thermophilus. An excerpt: (§1) pyruvate kinase/lactate dehydrogenase coupled assay, A340 on ttCMPK (CMP kinase)

Substrate in data set [2]: Nc1ccn([C@@H]2O[C@H](COP(=O)(O)O)[C@@H](O)[C@H]2O)c(=O)n1
The description is as above. The conditions noted are these: 1 mM ATP, 25 °C, pH 7.5, 5 mM MgCl2. The class given is biochemical, Thermus thermophilus.
Text: as §1

Substrate in data set [3]: O=c1ccn([C@@H]2O[C@H](COP(=O)(O)O)[C@@H](O)[C@H]2O)c(=O)[nH]1
The data set can be described thus: purified protein. The following applies: 1 mM ATP, 25 °C, pH 7.5, 5 mM MgCl2, 25.0 °C.

Substrate in data set [4]: Nc1ncnc2c1ncn2[C@@H]1O[C@H](COP(=O)(O)OP(=O)(O)OP(=O)(O)O)[C@@H](O)[C@H]1O
The data set can be described thus: pyruvate kinase/lactate dehydrogenase coupled assay, A340. The class given is biochemical, Thermus thermophilus. The conditions noted are these: excess UMP (methods print 1 mM CMP), 25 °C, pH 7.5, 5 mM MgCl2.

Substrate in data set [5]: O=C(O)CC(=O)C(=O)O
The data set can be described thus: purified protein. The following applies: 0.15 mM NADH, 5 mM MgCl2, 100 mM KCl, 50 mM Tris-HCl pH 7.5, 30 °C, 30.0 °C.

Substrate in data set [6]: NC(=O)C1=CN([C@@H]2O[C@H](COP(=O)(O)OP(=O)(O)OC[C@H]3O[C@@H](n4cnc5c(N)ncnc54)[C@H](O)[C@@H]3O)[C@@H](O)[C@H]2O)C=CC1
The data set is described as follows: A340 spectrophotometry. The class given is biochemical, Thermus thermophilus. The conditions noted are these: 25 μM oxaloacetate, 5 mM MgCl2, 100 mM KCl, 50 mM Tris-HCl pH 7.5, 30 °C. An excerpt:
A340 spectrophotometry on ttMDH (malate dehydrogenase)

Substrate in data set [7]: O=P(O)(O)OP(=O)(O)O
The data set is described as follows: phosphate release, BIOMOL Green, A650. The class given is biochemical, Thermus thermophilus. The conditions noted are these: 2 mM MgCl2, 100 mM KCl, 50 mM Tris-HCl pH 7.5, 60 °C. An excerpt: phosphate release, BIOMOL Green, A650 on ttPPase (inorganic pyrophosphatase)

Substrate in data set [8]: Nc1ncnc2c1ncn2[C@@H]1O[C@H](COP(=O)(O)O)[C@@H](O)[C@H]1O
The data set is described as follows: pyruvate kinase/lactate dehydrogenase coupled assay, A340. The class given is biochemical, Thermus thermophilus. The following applies: 1 mM ATP, 5 mM MgCl2, 100 mM KCl, 50 mM Tris-HCl pH 7.5, 25 °C. The source says:
pyruvate kinase/lactate dehydrogenase coupled assay, A340 on ttAMPK (AMP kinase)

Substrate in data set [9]: NC(=O)c1ccc[n+]([C@@H]2O[C@H](COP(=O)(O)OP(=O)(O)OC[C@H]3O[C@@H](n4cnc5c(N)ncnc54)[C@H](OP(=O)(O)O)[C@@H]3O)[C@@H](O)[C@H]2O)c1
The data set can be described thus: A340 spectrophotometry. The class given is biochemical, Thermus thermophilus. The following applies: 2 mM isocitrate, 5 mM MgCl2, 100 mM KCl, 50 mM Tris-HCl pH 7.5, 60 °C. An excerpt: (§2) A340 spectrophotometry on ttIDH (isocitrate dehydrogenase)

Substrate in data set [10]: O=C(O)C[C@H](C(=O)O)[C@@H](O)C(=O)O
The data set can be described thus: A340 spectrophotometry. The class given is biochemical, Thermus thermophilus. The following applies: 4 mM NADP+, 5 mM MgCl2, 100 mM KCl, 50 mM Tris-HCl pH 7.5, 60 °C.
Text: as §2

Substitutions are numbered along the chain they refer to. Numbers in names are those of the source.

The Km is the concentration of substrate that gives half-maximal velocity. A word on the kcat: it is the number of substrate molecules converted per active site and unit of time at saturation.

B1: ttCMPK (CMP kinase) (Thermus thermophilus HB8; S11E) (protein)
chain: MRGIVTIDGPEASGKSSVARRVAAALGVPYLSSGLLYRAAAFLALRAGVDPGDEEGLLALLEGLGVRLLAQAEGNRVLADGEDLTSFLHTPEVDRVVSAVARLPGVRAWVNRRLKEVPPPFVAEGRDMGTAVFPEAAHKFYLTASPEVRAWRRARERPQAYEEVLRDLLRRDERDKAQSAPAPDALVLDTGGMTLDEVVAWVLAHIRR
notes: recombinant in E. coli C41(DE3)pRARE2, pET-11a, no tag mentioned; monomer
For the protein B1, in data set [1], the Km was 60 ± 14 µM and the kcat was 0.05 ± 0.01 s⁻¹.

B2: ttCMPK (CMP kinase) (Thermus thermophilus HB8) (protein)
chain: B1 chain with E11S
notes: as for B1
Take B2: in [2], the Km amounted to 61 ± 19 µM and the kcat was 54 ± 16 s⁻¹. In addition, in data set [1], the Km came to 53 ± 1 µM and the kcat was determined as 40 ± 1 s⁻¹.

B3: ttCMPK (CMP kinase) (Thermus thermophilus HB8; S11A) (protein)
chain: B1 chain with E11A
notes: as for B1
For B3, in [2], the Km amounted to 53 ± 3 µM and the kcat amounted to 57 ± 8 s⁻¹.

B4: ttUMPK (UMP kinase) (Thermus thermophilus HB8) (protein)
chain: MKYKRVLLKLSGEFLTRNGFGIEPEATQALAREIKAAYDTGVQLAIVIGAGNLWRGARQGVGMDRATADYIGMLATIMNALALQDALESLGVPTRVQTALTITQVAEPYIRRRALRHLEKERIVIFGGGTGNPFFSTDTAAALRALEVGAEVVLMAKNKVDGVYSDDPRKNPEAVRFDELTYLEVLNRGLQVMDTTAITLCMEAGLPIVVFDIFKPGALVGIIQGEKVGTLIH
notes: recombinant in E. coli C41(DE3)pRARE2, pET-11a, no tag mentioned; hexamer (prokaryotic UMP kinases)
Consider B4, for which, in the data set “purified protein [3]”, the Km is 74 ± 10 µM and the turnover number (kcat) was determined as 21 ± 1 s⁻¹. Besides, in data set [4], the Km is 214 ± 7 µM and the turnover number (kcat) turned out to be 14 ± 0 s⁻¹.

B5: ttUMPK (UMP kinase) (Thermus thermophilus HB8; S11A) (protein)
chain: B4 chain with S11A
notes: as for B4
Turning to B5, in data set [4], the Km turned out to be 732 ± 206 µM and the catalytic constant (kcat) worked out at 0.04 ± 0.02 s⁻¹.

B6: ttMDH (malate dehydrogenase) (Thermus thermophilus HB8) (protein)
chain: MKAPVRVAVTGAAGQIGYSLLFRIAAGEMLGKDQPVILQLLEIPQAMKALEGVVMELEDCAFPLLAGLEATDDPKVAFKDADYALLVGAAPRKAGMERRDLLQVNGKIFTEQGRALAEVAKKDVKVLVVGNPANTNALIAYKNAPGLNPRNFTAMTRLDHNRAKAQLAKKTGTGVDRIRRMTVWGNHSSTMFPDLFHAEVDGRPALELVDMEWYEKVFIPTVAQRGAAIIQARGASSAASAANAAIEHIRDWALGTPEGDWVSMAVPSQGEYGIPEGIVYSFPVTAKDGAYRVVEGLEINEFARKRMEITAQELLDEMEQVKALGLI
notes: recombinant in E. coli C41(DE3)pRARE2, pET-11a, no tag mentioned
As for B6, the Michaelis constant (Km) in the data set “purified protein [5]” is 8.6 ± 0.4 µM; in the data set “A340 spectrophotometry [6]” it was 2.7 ± 0.9 µM. The kcat in “purified protein [5]” was found to be 203 ± 5 s⁻¹; in “A340 spectrophotometry [6]”, 126 ± 14 s⁻¹.

B7: ttMDH (malate dehydrogenase) (Thermus thermophilus HB8; S236A) (protein)
chain: B6 chain with S236A
notes: as for B6
Regarding B7, in “purified protein [5]”, the Michaelis constant (Km) was 52 ± 2 µM and the kcat amounted to 622 ± 8 s⁻¹. Moreover, in “A340 spectrophotometry [6]”, the Km was found to be 7.6 ± 0.2 µM and the kcat was 468 ± 15 s⁻¹.

B8: ttPPase (inorganic pyrophosphatase) (Thermus thermophilus HB8) (protein)
chain: ANLKSLPVGDKAPEVVHMVIEVPRGSGNKYEYDPDLGAIKLDRVLPGAQFYPGDYGFIPSTLAEDGDPLDGLVLSTYPLLPGVVVEVRVVGLLLMEDEKGGDAKVIGVVAEDQRLDHIQDIGDVPEGVKQEIQHFFETYKALEAKKGKWVKVTGWRDRKAALEEVRACIARYKG
notes: as for B6
On to B8, for which, in data set [7], the Km was 17 ± 2 µM and the kcat worked out at 62 ± 11 s⁻¹.

B9: ttPPase (inorganic pyrophosphatase) (Thermus thermophilus HB8; Y140F) (protein)
chain: B8 chain with Y139F
notes: as for B6
Turning to B9, in data set [7], the Km was determined as 53 ± 0 µM and the kcat stood at 19 ± 3 s⁻¹.

B10: ttAMPK (AMP kinase) (Thermus thermophilus HB8) (protein)
chain: MDVGQAVIFLGPPGAGKGTQASRLAQELGFKKLSTGDILRDHVARGTPLGERVRPIMERGDLVPDDLILELIREELAERVIFDGFPRTLAQAEALDRLLSETGTRLLGVVLVEVPEEELVRRILRRAELEGRSDDNEETVRRRLEVYREKTEPLVGYYEARGVLKRVDGLGTPDEVYARIRAALGI
notes: recombinant in E. coli Rosetta2(DE3), pET-3a, no tag mentioned; monomer
B10: in data set [8], the Km was 23 ± 1 µM and the kcat came to 111 ± 3 s⁻¹.

B11: ttAMPK (AMP kinase) (Thermus thermophilus HB8; S34E) (protein)
chain: B10 chain with S34E
notes: as for B10
For B11, in data set [8], the Km is 153 ± 1 µM and the kcat came out at 3.7 s⁻¹.

B12: ttAMPK (AMP kinase) (Thermus thermophilus HB8; S34A) (protein)
chain: B10 chain with S34A
notes: as for B10
Regarding B12, in data set [8], the Km was 71 ± 2 µM and the kcat worked out at 142 ± 4 s⁻¹.

B13: ttIDH (isocitrate dehydrogenase) (Thermus thermophilus HB8) (protein)
chain: PLITTETGKKMHVLEDGRKLITVIPGDGIGPECVEATLKVLEAAKAPLAYEVREAGASVFRRGIASGVPQETIESIRKTRVVLKGPLETPVGYGEKSANVTLRKLFETYANVRPVREFPNVPTPYAGRGIDLVVVRENVEDLYAGIEHMQTPSVAQTLKLISWKGSEKIVRFAFELARAEGRKKVHCATKSNIMKLAEGTLKRAFEQVAQEYPDIEAVHIIVDNAAHQLVKRPEQFEVIVTTNMNGDILSDLTSGLIGGLGFAPSANIGNEVAIFEAVHGSAPKYAGKNVINPTAVLLSAVMMLRYLEEFATADLIENALLYTLEEGRVLTGDVVGYDRGAKTTEYTEAIIQNLGKTPRKTQVRGYKPFRLPQVDGAIAPIVPRSRRVVGVDVFVETNLLPEALGKALEDLAAGTPFRLKMISNRGTQVYPPTGGLTDLVDHYRCRFLYTGEGEAKDPEILDLVSRVASRFRWMHLEKLQEFDGEPGFTKAQGED
notes: as for B6
Turning to B13, in “A340 spectrophotometry [9]”, the Km amounted to 39 ± 1 µM and the kcat was 30 ± 2 s⁻¹. For the same protein, in “A340 spectrophotometry [10]”, the Michaelis constant (Km) was 34 ± 2 µM and the kcat worked out at 26 ± 1 s⁻¹.

B14: ttIDH (isocitrate dehydrogenase) (Thermus thermophilus HB8; S98E) (protein)
chain: B13 chain with S97E
notes: as for B6
Regarding B14, in the data set “A340 spectrophotometry [9]”, the Michaelis-Menten constant (Km) worked out at 144 ± 21 µM and the kcat was determined as 0.12 ± 0 s⁻¹. In addition, in the data set “A340 spectrophotometry [10]”, the Michaelis constant (Km) was found to be 178 ± 28 µM and the kcat is 0.19 ± 0.02 s⁻¹.
